The target in experiment [1] is T1, CD38 on CD38+ Toledo Target cells (UniProt P28907 1-300, limits assumed).
T1 construct: whole, on cells
Put plainly: flow cytometry, Jurkat T cells carrying the receptor with Toledo Target cells. (A flow cytometer gives signals particle by particle.)

Another experiment has as its target T2, NLS-pMag-CreC.
T2 chain: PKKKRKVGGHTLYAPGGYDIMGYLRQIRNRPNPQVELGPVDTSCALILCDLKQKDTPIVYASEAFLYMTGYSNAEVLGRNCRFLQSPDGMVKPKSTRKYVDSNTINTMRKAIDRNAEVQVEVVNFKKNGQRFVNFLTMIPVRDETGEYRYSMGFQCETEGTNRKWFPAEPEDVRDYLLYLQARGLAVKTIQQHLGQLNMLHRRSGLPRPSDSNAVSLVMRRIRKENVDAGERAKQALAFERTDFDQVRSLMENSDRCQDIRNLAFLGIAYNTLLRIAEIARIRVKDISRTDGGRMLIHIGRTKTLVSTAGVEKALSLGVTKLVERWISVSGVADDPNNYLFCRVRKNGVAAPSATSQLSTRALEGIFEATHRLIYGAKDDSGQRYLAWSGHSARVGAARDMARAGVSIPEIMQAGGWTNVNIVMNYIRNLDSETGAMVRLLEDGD
Put plainly: cell-based or functional assay.

B1: myc-α-CD38-Receptor (receptor)
chain: SEQKLISEEDLDIQLTQSSSSFSVSLGDRVTITCKASEDIYNRLAWYQQKPGNAPRLLISGATSLETGVPSRFSGSGSGKDYTLSITSLQTEDVATYYCQQYWSTPTFGGGTKLEIKRADAAPTVSIFPPSGGGGSGGGGSGGGGSGGGGSQVQLKQSGPSLVQPSQRLSITCTVSGFSLISYGVHWVRQSPGKGLEWLGVIWRGGSTDYNAAFMSRLSITKDNSKSQVFFKMNSLQADDTAIYFCAKTLITTGYAMDYWGQGTSVTVSSAAAIEVMYPPPYLDNEKSNGTIIHVKGKHLCPSPLFPGPSKPFWVLVVVGGVLACYSLLVTVAFIIFWVRSKRS
notes: Non-signalling anchoring receptor with myc tag, expressed on Jurkat T cells; also called c-myc-tagged α-CD38 Receptor
For B1, the binding result in experiment [1] was “binds”.

B2: ERT2-CreN-nMag (other)
chain: MAGDMRAANLWPSPLMIKRSKKNSLALSLTADQMVSALLDAEPPILYSEYDPTRPFSEASMMGLLTNLADRELVHMINWAKRVPGFVDLTLHDQVHLLECAWLEILMIGLVWRSMEHPVKLLFAPNLLLDRNQGKCVEGMVEIFDMLLATSSRFRMMNLQGEEFVCLKSIILLNSGVYTFLSSTLKSLEEKDHIHRVLDKITDTLIHLMAKAGLTLQQQHQRLAQLLLILSHIRHMSNKGMEHLYSMKCKNVVPLYDLLLEAADAHRLHAPTSRGGASVEETDQSHLATAGSTSSHSLQKYYITGEAEGFPATAVDNLLTVHQNLPALPVDATSDEVRKNLMDMFRDRQAFSEHTWKMLLSVCRSWAAWCKLNGTHTLYAPGGYDIMGYLDQIGNRPNPQVELGPVDTSCALILCDLKQKDTPIVYASEAFLYMTGYSNAEVLGRNCRFLQSPDGMVKPKSTRKYVDSNTINTMRKAIDRNAEVQVEVVNFKKNGQRFVNFLTMIPVRDETGEYRYSMGFQCETE
On to B2, for which the “fold increase in recombined TamPA-Cre+ CAR Reporter Jurkat T cells, Light+4-OHT against Dark+4-OHT” value in the experiment with NLS-pMag-CreC is 27.1 fold.

Source of the values: patent US20230036060A1 (University of California, published 2023).
